Experimental data as given in patent CN108840930A (SHENGYAN MEDICINE TECH WUHAN CO LTD, dated 2018).

Molecular target: 抗体-Fc融合蛋白scFv-3B5-Fc (anti-human CD19 scFv 3B5 fused to human IgG1 Fc) (human, UniProt P01857 99-330 = IgG part)
Assay: concentration-gradient ELISA, Fc-CD19 coated at 100 ng/well, goat anti-human-HRP detection, nonlinear fit (b = KD)

B1: 人Fc-CD19重组蛋白 (recombinant human Fc-CD19, bought from Acrobiosystems) (Fc fusion, UniProt P15391 20-291, looked up)
chain: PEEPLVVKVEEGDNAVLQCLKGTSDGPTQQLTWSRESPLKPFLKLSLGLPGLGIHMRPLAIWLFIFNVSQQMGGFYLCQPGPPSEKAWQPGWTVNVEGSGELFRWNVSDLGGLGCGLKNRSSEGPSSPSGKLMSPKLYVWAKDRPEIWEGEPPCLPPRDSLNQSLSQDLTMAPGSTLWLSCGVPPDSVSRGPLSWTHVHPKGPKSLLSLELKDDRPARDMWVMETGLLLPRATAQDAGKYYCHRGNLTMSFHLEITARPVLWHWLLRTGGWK
notes: Bought reagent; the order here follows the printed name Fc-CD19; also called Fc-CD19重组抗原; 重组人CD19抗原; not shown: Fc part of the bought Fc-CD19 fusion
B1 showed a Kd of 0.475 nM.
